B4: His6-pro-Caspase-9 (enzyme)
chain: HHHHHHMDEADRRLLRRCRLRLVEELQVDQLWDALLSRELFRPHMIEDIQRAGSGSRRDQARQLIIDLETRGSQALPLFISCLEDTGQDMLASFLRTNRQAAKLSKPTLENLTPVVLRPEIRKPEVLRPETPRPVDIGSGGFGDVGALESLRGNADLAYILSMEPCGHCLIINNVNFCRESGLRTRTGSNIDCEKLRRRFSSLHFMVEVKGDLTAKKMVLALLELAQQDHGALDCCVVVILSHGCQASHLQFPGAVYGTDGCPVSVEKIVNIFNGTSCPSLGGKPKLFFIQACGGEQKDHGFEVASTSPEDESPGSNPEPDATPFQEGLRTFDQLDAISSLPTPSDIFVSYSTFPGFVSWRDPKSGSWYVETLDDIFEQWAHSEDLQSLLLRVANAVSVKGIYKQMPGCFNFLRKKLFFKTS
notes: also called recombinant pro-Caspase-9

Key:
[1] = target: B4; assay: GST pull-down in the presence of Survivin, anti-Caspase-9 immunoblot
[2] = target: T1, GST-HBXIP (human, UniProt O43504 1-91); assay: GST pull-down, anti-Caspase-9 immunoblot
[3] = target: HBXIP/Survivin complex (GST-HBXIP with purified untagged Survivin) (human, UniProt O43504 1-91; O15392 1-142); assay: GST pull-down, anti-Caspase-3 immunoblot
[4] = target: T1, GST-HBXIP; assay: GST pull-down, anti-Caspase-3 immunoblot

B1: GST-CD40 (cytosolic domain) control protein (other, UniProt P25942 216-277, looked up, not shown: a dimerising Fc or GST)
chain: KKVAKKPTNKAPHPKQEPQEINFPDDLPGSNTAAPVQETLHGCQPVTQEDGKESRISVQERQ
notes: domain: cytosolic domain
B1: no binding [1].

B2: active His6-Caspase-9 (lacking CARD domain) (enzyme)
chain: HHHHHHVGALESLRGNADLAYILSMEPCGHCLIINNVNFCRESGLRTRTGSNIDCEKLRRRFSSLHFMVEVKGDLTAKKMVLALLELAQQDHGALDCCVVVILSHGCQASHLQFPGAVYGTDGCPVSVEKIVNIFNGTSCPSLGGKPKLFFIQACGGEQKDHGFEVASTSPEDESPGSNPEPDATPFQEGLRTFDQLDAISSLPTPSDIFVSYSTFPGFVSWRDPKSGSWYVETLDDIFEQWAHSEDLQSLLLRVANAVSVKGIYKQMPGCFNFLRKKLFFKTS
notes: also called active Caspase-9
B2: no binding [2].

B3: His6-pro-Caspase-3 (enzyme)
chain: HHHHHHMENTENSVDSKSIKNLEPKIIHGSESMDSGISLDNSYKMDYPEMGLCIIINNKNFHKSTGMTSRSGTDVDAANLRETFRNLKYEVRNKNDLTREEIVELMRDVSKEDHSKRSSFVCVLLSHGEEGIIFGTNGPVDLKKITNFFRGDRCRSLTGKPKLFIIQACRGTELDCGIETDSGVDDDMACHKIPVEADFLYAYSTAPGYYSWRNSKDGSWFIQSLCAMLKQYADKLEFMHILTRVNRKVATEFESFSFDATFHAKKQIPCIVSMLTKELYFYH
B3: no binding [3]; no binding [4].

B4: no binding [2].
